Data from paper PMC7367873, “Dissecting the sequence determinants for dephosphorylation by the catalytic subunits of phosphatases PP1 and PP2A” (Nature Communications, 2020).

How the values were obtained:
GFP-14-3-3β = GFP-14-3-3β co-IP with LC-MS/MS, untreated GFP-14-3-3β versus GFP control (14-3-3 interactome); assay type: binding, human; conditions: pairwise comparison untreated vs GFP
[1] = system: GFP-14-3-3β and its binding proteins; assay: GFP-14-3-3β co-IP with LC-MS/MS label-free quantification, untreated versus PP1c-treated; design: species or system human; conditions: pairwise comparison PP1 vs untreated
[2] = log2 difference, label-free quantification, 3 replicates each

| Molecule | Difference (log2), untreated vs GFP (GFP-14-3-3β) | Difference (log2), PP1 vs untreated [1] | Difference (log2), untreated vs GFP (GFP-14-3-3β; [2]) | Difference (log2), PP1 vs untreated [1, 2] |
| --- | --- | --- | --- | --- |
| PLEKHA7 (protein, UniProt Q6IQ23 1-1121, looked up) Pleckstrin homology …: MAAATVGRDTLPEHWSYGVCRDGRVFFINDQLRCTTWLHPRTGEPVNSGHMIRSDLPRGWEEGFTEEGASYFIDHNQQTTAFRHPVTGQFSPENSEFILQEEPNPHMSKQDRNQRPSSMVSETSTAGTASTLEAKPGPKIIKSSSKVHSFGKRDQAIRRNPNVPVVVRGWLHKQDSSGMRLWKRRWFVLADYCLFYYKDSREEAVLGSIPLPSYVISPVAPEDRISRKYSFKAVHTGMRALIYNSSTAGSQAEQSGMRTYYFSADTQEDMNAWVRAMNQAAQVLSRSSLKRDMEKVERQAVPQANHTESCHECGRVGPGHTRDCPHRGHDDIVNFERQEQEGEQYRSQRDPLEGKRDRSKARSPYSPAEEDALFMDLPTGPRGQQAQPQRAEKNGMLPASYGPGEQNGTGGYQRAFPPRTNPEKHSQRKSNLAQVEHWARAQKGDSRSLPLDQTLPRQGPGQSLSFPENYQTLPKSTRHPSGGSSPPPRNLPSDYKYAQDRASHLKMSSEERRAHRDGTVWQLYEWQQRQQFRHGSPTAPICLGSPEFTDQGRSRSMLEVPRSISVPPSPSDIPPPGPPRVFPPRRPHTPAERVTVKPPDQRRSVDISLGDSPRRARGHAVKNSSHVDRRSMPSMGYMTHTVSAPSLHGKSADDTYLQLKKDLEYLDLKMTGRDLLKDRSLKPVKIAESDTDVKLSIFCEQDRVLQDLEDKIRALKENKDQLESVLEVLHRQMEQYRDQPQHLEKIAYQQKLLQEDLVHIRAELSRESTEMENAWNEYLKLENDVEQLKQTLQEQHRRAFFFQEKSQIQKDLWRIEDVTAGLSANKENFRILVESVKNPERKTVPLFPHPPVPSLSTSESKPPPQPSPPTSPVRTPLEVRLFPQLQTYVPYRPHPPQLRKVTSPLQSPTKAKPKVEDEAPPRPPLPELYSPEDQPPAVPPLPREATIIRHTSVRGLKRQSDERKRDRELGQCVNGDSRVELRSYVSEPELATLSGDMAQPSLGLVGPESRYQTLPGRGLSGSTSRLQQSSTIAPYVTLRRGLNAESSKATFPRPKSALERLYSGDHQRGKMSAEEQLERMKRHQKALVRERKRTLGQGERTGLPSSRYLSRPLPGDLGSVC | 1.203 log2 | 0.2527 log2 | – | – |
| LRRC59 (protein, UniProt Q96AG4 1-307, looked up) Leucine-rich …: MTKAGSKGGNLRDKLDGNELDLSLSDLNEVPVKELAALPKATILDLSCNKLTTLPSDFCGLTHLVKLDLSKNKLQQLPADFGRLVNLQHLDLLNNKLVTLPVSFAQLKNLKWLDLKDNPLDPVLAKVAGDCLDEKQCKQCANKVLQHMKAVQADQERERQRRLEVEREAEKKREAKQRAKEAQERELRKREKAEEKERRRKEYDALKAAKREQEKKPKKEANQAPKSKSGSRPRKPPPRKHTRSWAVLKLLLLLLLFGVAGGLVACRVTELQQQPLCTSVNTIYDNAVQGLRRHEILQWVLQTDSQQ | 0.4854 log2 | 0.2489 log2 | – | – |
| JUP (protein, UniProt P14923 1-745, looked up) Junction plakoglobin: MEVMNLMEQPIKVTEWQQTYTYDSGIHSGANTCVPSVSSKGIMEEDEACGRQYTLKKTTTYTQGVPPSQGDLEYQMSTTARAKRVREAMCPGVSGEDSSLLLATQVEGQATNLQRLAEPSQLLKSAIVHLINYQDDAELATRALPELTKLLNDEDPVVVTKAAMIVNQLSKKEASRRALMGSPQLVAAVVRTMQNTSDLDTARCTTSILHNLSHHREGLLAIFKSGGIPALVRMLSSPVESVLFYAITTLHNLLLYQEGAKMAVRLADGLQKMVPLLNKNNPKFLAITTDCLQLLAYGNQESKLIILANGGPQALVQIMRNYSYEKLLWTTSRVLKVLSVCPSNKPAIVEAGGMQALGKHLTSNSPRLVQNCLWTLRNLSDVATKQEGLESVLKILVNQLSVDDVNVLTCATGTLSNLTCNNSKNKTLVTQNSGVEALIHAILRAGDKDDITEPAVCALRHLTSRHPEAEMAQNSVRLNYGIPAIVKLLNQPNQWPLVKATIGLIRNLALCPANHAPLQEAAVIPRLVQLLVKAHQDAQRHVAAGTQQPYTDGVRMEEIVEGCTGALHILARDPMNRMEIFRLNTIPLFVQLLYSSVENIQRVAAGVLCELAQDKEAADAIDAEGASAPLMELLHSRNEGTATYAAAVLFRISEDKNPDYRKRVSVELTNSLFKHDPAAWEAAQSMIPINEPYGDDMDATYRPMYSSDVPLDPLEMHMDMDGDYPIDTYSDGLRPPYPTADHMLA | -0.9623 log2 | 0.2305 log2 | – | – |
| TMEM41B (protein, UniProt Q5BJD5 1-291, looked up) Transmembrane protein 41B: MAKGRVAERSQLGAHHTTPVGDGAAGTRGLAAPGSRDHQKEKSWVEAGSARMSLLILVSIFLSAAFVMFLVYKNFPQLSEEERVNMKVPRDMDDAKALGKVLSKYKDTFYVQVLVAYFATYIFLQTFAIPGSIFLSILSGFLYPFPLALFLVCLCSGLGASFCYMLSYLVGRPVVYKYLTEKAVKWSQQVERHREHLINYIIFLRITPFLPNWFINITSPVINVPLKVFFIGTFLGVAPPSFVAIKAGTTLYQLTTAGEAVSWNSIFILMILAVLSILPAIFQKKLKQKFE | 0.8349 log2 | 0.218 log2 | – | – |
| HERC5 (protein, UniProt Q9UII4 1-1024, looked up) E3 ISG15--protein ligase HERC5: MERRSRRKSRRNGRSTAGKAAATQPAKSPGAQLWLFPSAAGLHRALLRRVEVTRQLCCSPGRLAVLERGGAGVQVHQLLAGSGGARTPKCIKLGKNMKIHSVDQGAEHMLILSSDGKPFEYDNYSMKHLRFESILQEKKIIQITCGDYHSLALSKGGELFAWGQNLHGQLGVGRKFPSTTTPQIVEHLAGVPLAQISAGEAHSMALSMSGNIYSWGKNECGQLGLGHTESKDDPSLIEGLDNQKVEFVACGGSHSALLTQDGLLFTFGAGKHGQLGHNSTQNELRPCLVAELVGYRVTQIACGRWHTLAYVSDLGKVFSFGSGKDGQLGNGGTRDQLMPLPVKVSSSEELKLESHTSEKELIMIAGGNQSILLWIKKENSYVNLKRTIPTLNEGTVKRWIADVETKRWQSTKREIQEIFSSPACLTGSFLRKRRTTEMMPVYLDLNKARNIFKELTQKDWITNMITTCLKDNLLKRLPFHSPPQEALEIFFLLPECPMMHISNNWESLVVPFAKVVCKMSDQSSLVLEEYWATLQESTFSKLVQMFKTAVICQLDYWDESAEENGNVQALLEMLKKLHRVNQVKCQLPESIFQVDELLHRLNFFVEVCRRYLWKMTVDASENVQCCVIFSHFPFIFNNLSKIKLLHTDTLLKIESKKHKAYLRSAAIEEERESEFALRPTFDLTVRRNHLIEDVLNQLSQFENEDLRKELWVSFSGEIGYDLGGVKKEFFYCLFAEMIQPEYGMFMYPEGASCMWFPVKPKFEKKRYFFFGVLCGLSLFNCNVANLPFPLALFKKLLDQMPSLEDLKELSPDLGKNLQTLLDDEGDNFEEVFYIHFNVHWDRNDTNLIPNGSSITVNQTNKRDYVSKYINYIFNDSVKAVYEEFRRGFYKMCDEDIIKLFHPEELKDVIVGNTDYDWKTFEKNARYEPGYNSSHPTIVMFWKAFHKLTLEEKKKFLVFLTGTDRLQMKDLNNMKITFCCPESWNERDPIRALTCFSVLFLPKYSTMETVEEALQEAINNNRGFG | – | – | 0.5274 | 2.053 |
| RAI14 (protein, UniProt Q9P0K7 1-980, looked up) Ankycorbin: MKSLKAKFRKSDTNEWNKNDDRLLQAVENGDAEKVASLLGKKGASATKHDSEGKTAFHLAAAKGHVECLRVMITHGVDVTAQDTTGHSALHLAAKNSHHECIRKLLQSKCPAESVDSSGKTALHYAAAQGCLQAVQILCEHKSPINLKDLDGNIPLLLAVQNGHSEICHFLLDHGADVNSRNKSGRTALMLACEIGSSNAVEALIKKGADLNLVDSLGYNALHYSKLSENAGIQSLLLSKISQDADLKTPTKPKQHDQVSKISSERSGTPKKRKAPPPPISPTQLSDVSSPRSITSTPLSGKESVFFAEPPFKAEISSIRENKDRLSDSTTGADSLLDISSEADQQDLLSLLQAKVASLTLHNKELQDKLQAKSPKEAEADLSFDSYHSTQTDLGPSLGKPGETSPPDSKSSPSVLIHSLGKSTTDNDVRIQQLQEILQDLQKRLESSEAERKQLQVELQSRRAELVCLNNTEISENSSDLSQKLKETQSKYEEAMKEVLSVQKQMKLGLVSPESMDNYSHFHELRVTEEEINVLKQDLQNALEESERNKEKVRELEEKLVEREKGTVIKPPVEEYEEMKSSYCSVIENMNKEKAFLFEKYQEAQEEIMKLKDTLKSQMTQEASDEAEDMKEAMNRMIDELNKQVSELSQLYKEAQAELEDYRKRKSLEDVTAEYIHKAEHEKLMQLTNVSRAKAEDALSEMKSQYSKVLNELTQLKQLVDAQKENSVSITEHLQVITTLRTAAKEMEEKISNLKEHLASKEVEVAKLEKQLLEEKAAMTDAMVPRSSYEKLQSSLESEVSVLASKLKESVKEKEKVHSEVVQIRSEVSQVKREKENIQTLLKSKEQEVNELLQKFQQAQEELAEMKRYAESSSKLEEDKDKKINEMSKEVTKLKEALNSLSQLSYSTSSSKRQSQQLEALQQQVKQLQNQLAECKKQHQEVISVYRMHLLYAVQGQMDEDVQKVLKQILTMCKNQSQKK | 0.7048 log2 | 0.1978 log2 | – | – |
| QARS (protein, UniProt P47897 2-775, looked up) Glutamine--tRNA ligase: AALDSLSLFTSLGLSEQKARETLKNSALSAQLREAATQAQQTLGSTIDKATGILLYGLASRLRDTRRLSFLVSYIASKKIHTEPQLSAALEYVRSHPLDPIDTVDFERECGVGVIVTPEQIEEAVEAAINRHRPQLLVERYHFNMGLLMGEARAVLKWADGKMIKNEVDMQVLHLLGPKLEADLEKKFKVAKARLEETDRRTAKDVVENGETADQTLSLMEQLRGEALKFHKPGENYKTPGYVVTPHTMNLLKQHLEITGGQVRTRFPPEPNGILHIGHAKAINFNFGYAKANNGICFLRFDDTNPEKEEAKFFTAICDMVAWLGYTPYKVTYASDYFDQLYAWAVELIRRGLAYVCHQRGEELKGHNTLPSPWRDRPMEESLLLFEAMRKGKFSEGEATLRMKLVMEDGKMDPVAYRVKYTPHHRTGDKWCIYPTYDYTHCLCDSIEHITHSLCTKEFQARRSSYFWLCNALDVYCPVQWEYGRLNLHYAVVSKRKILQLVATGAVRDWDDPRLFTLTALRRRGFPPEAINNFCARVGVTVAQTTMEPHLLEACVRDVLNDTAPRAMAVLESLRVIITNFPAAKSLDIQVPNFPADETKGFHQVPFAPIVFIERTDFKEEPEPGFKRLAWGQPVGLRHTGYVIELQHVVKGPSGCVESLEVTCRRADAGEKPKAFIHWVSQPLMCEVRLYERLFQHKNPEDPTEVPGGFLSDLNLASLHVVDAALVDCSVALAKPFDKFQFERLGYFSVDPDSHQGKLVFNRTVTLKEDPGKV | 0.6541 log2 | 0.1821 log2 | – | – |
